Experiments:
[1] = target: EGFR (Homo sapiens, UniProt P00533); details: Mullenbach et al., Protein Eng 11:473-480, 1998; cited from earlier work
[2] = target: T1, EGFR on NR6 fibroblast cells (Homo sapiens, UniProt P00533); assay: Competition binding of soluble EGF to EGFR on NR6 fibroblast cells (flow cytometry, Alexa-488 labeled wt EGF); details: competition with Alexa-488 labeled wt EGF, 6 hr at 4° C., read-out: Equilibrium dissociation constants
T1 construct: expressed in transfected cells; host or cells: NR6 fibroblast cells
Protocol: (§1) Fluorescence intensity of cell surface labeling was measured by flow cytometry.
as §1
This mutant was tested using one of the binding assays described herein in which binding to EGFR expressed on cells is measured. […] Fluorescence intensity of cell surface labeling was measured by flow cytometry.

Row | Substance | increase in affinity for EGFR over wt EGF (previous data) [1] | Kd [2]
1 | G12Q: previously described EGF containing a G12Q mutation (Mullenbach et al.) (NSDSECPLSHDQYCLHDGVCMYIEALDKYACNCVVGYIGERCQYRDLKWWELR) | 5 fold | 
2 | NSYSECPLSYDGYCLNDGVCRYIEALDRYACNCVVGYIGERCQYRDLKWWWLR (Mutant of human epidermal growth factor) [clone 107, second generation EGF mutant from the SOSM library] |  | 0.13 ± 0.01 nM
